{
  "source": "paper PMC7857489",
  "key": {"MinD (E. coli) [1]": {"target": "MinD (E. coli) (UniProt P0AEZ3)", "sequence (P0AEZ3 whole entry)": "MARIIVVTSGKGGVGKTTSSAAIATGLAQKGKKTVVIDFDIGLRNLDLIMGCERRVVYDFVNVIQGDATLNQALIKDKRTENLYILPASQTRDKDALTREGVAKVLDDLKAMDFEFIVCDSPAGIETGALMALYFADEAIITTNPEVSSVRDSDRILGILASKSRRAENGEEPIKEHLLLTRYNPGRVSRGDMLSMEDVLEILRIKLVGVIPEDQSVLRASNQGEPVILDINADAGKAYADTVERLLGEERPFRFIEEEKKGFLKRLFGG"}, "FL-MinD (E. coli)": {"target": "FL-MinD (E. coli) (UniProt P0AEZ3)", "sequence (P0AEZ3 whole entry)": "as above"}, "MinD (E. coli) [2]": {"target": "MinD (E. coli) (UniProt P0AEZ3)", "remark": "listed apart in the source"}},
  "data": [
    {"substance": "ClpXP (from UniProt P0A6H1 1-424; P0A6G7 15-207) (complex)", "values": [
      {"measurement": "loss of full-length MinD (SDS-PAGE, Coomassie) after 3 h with MinD (6 μM), ClpX (1.0 μM), ClpP (1.2 μM) and ATP; no change when ATP or ClpP was omitted", "setting": "MinD (E. coli) [1]", "result": 45.9, "unit": "%"},
      {"measurement": "rate of degradation of fluorescent MinD (fluorescent peptides released), MinD 0-16 μM, ClpXP 0.8 μM, ATP 8 mM; rate at the plateau", "setting": "FL-MinD (E. coli)", "result": 0.08, "unit": "min⁻¹"},
      {"measurement": "degradation of MinD (6 μM) by ClpX (0.75 μM), ClpP (0.9 μM) with ATP, SDS-PAGE and densitometry over time", "setting": "MinD (E. coli) [2]", "result": 50, "unit": "%"}
    ]}
  ]
}
